Test results: PMC9482650, “Quantitative fragmentomics allow affinity mapping of interactomes” (Nature Communications, 2022)

T1: HTRA3, P83110
T1 sequence (P83110 354-453, limits assumed, looked up): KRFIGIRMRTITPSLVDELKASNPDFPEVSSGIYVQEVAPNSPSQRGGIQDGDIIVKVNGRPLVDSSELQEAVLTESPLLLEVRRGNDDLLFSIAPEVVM

T2: APBA3_1, O96018
T2 sequence (O96018 389-490, limits assumed, looked up): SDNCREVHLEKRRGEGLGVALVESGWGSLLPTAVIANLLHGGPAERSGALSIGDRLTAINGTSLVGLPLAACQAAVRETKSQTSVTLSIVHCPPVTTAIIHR

T3: LIN7C, Q9NUP9
T3 sequence (Q9NUP9 88-185, limits assumed, looked up): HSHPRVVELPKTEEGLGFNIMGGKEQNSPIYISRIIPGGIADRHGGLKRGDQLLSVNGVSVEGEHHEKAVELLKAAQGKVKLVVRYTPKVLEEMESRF

T4: PDZD7_3, Q9H5P4
T4 sequence (Q9H5P4 857-944, limits assumed, looked up): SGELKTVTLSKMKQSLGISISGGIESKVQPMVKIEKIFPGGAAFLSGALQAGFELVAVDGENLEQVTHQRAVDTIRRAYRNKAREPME

T5: TX1BP3, O14907
T5 sequence (O14907 10-122, limits assumed, looked up): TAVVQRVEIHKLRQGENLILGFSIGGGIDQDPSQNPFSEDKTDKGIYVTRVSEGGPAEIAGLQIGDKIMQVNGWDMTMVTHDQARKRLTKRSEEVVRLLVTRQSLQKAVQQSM

T6: PTPN13_1, Q12923
T6 sequence (Q12923 1088-1188, limits assumed, looked up): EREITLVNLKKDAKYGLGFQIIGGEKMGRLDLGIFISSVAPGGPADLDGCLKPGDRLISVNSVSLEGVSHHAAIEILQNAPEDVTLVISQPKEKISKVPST

T7: SNTA1, Q13424
T7 sequence (Q13424 82-180, limits assumed, looked up): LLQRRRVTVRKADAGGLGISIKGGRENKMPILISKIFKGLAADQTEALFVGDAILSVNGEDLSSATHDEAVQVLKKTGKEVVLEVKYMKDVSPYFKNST

T8: RHPN1, Q8TCX5
T8 sequence (Q8TCX5 508-602, limits assumed, looked up): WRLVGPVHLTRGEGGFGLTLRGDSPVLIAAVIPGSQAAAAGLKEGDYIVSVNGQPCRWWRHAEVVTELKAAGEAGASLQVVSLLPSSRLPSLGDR

T9: FRMPD1, Q5SYB0
T9 sequence (Q5SYB0 52-145, limits assumed, looked up): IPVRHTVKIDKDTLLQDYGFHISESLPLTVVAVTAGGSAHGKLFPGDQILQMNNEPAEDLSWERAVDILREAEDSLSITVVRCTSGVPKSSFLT

T10: SNTG2, Q9NY99
T10 sequence (Q9NY99 68-166, limits assumed, looked up): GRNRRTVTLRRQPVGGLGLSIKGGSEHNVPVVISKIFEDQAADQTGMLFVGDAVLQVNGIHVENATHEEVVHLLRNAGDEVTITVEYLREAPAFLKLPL

T11: DVL3, Q92997
T11 sequence (Q92997 244-331, limits assumed, looked up): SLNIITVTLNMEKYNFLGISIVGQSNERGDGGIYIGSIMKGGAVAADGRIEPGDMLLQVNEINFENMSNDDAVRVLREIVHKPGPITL

T12: TJP3_3, O95049
T12 sequence (O95049 375-456, limits assumed, looked up): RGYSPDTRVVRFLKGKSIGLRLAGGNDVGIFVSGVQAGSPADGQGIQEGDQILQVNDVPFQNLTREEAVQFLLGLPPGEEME

B1: AMOTL1, Q8IY63 (peptide)
chain: PDGEMMEVLI
B2: MARCHF9, Q86YJ5 (peptide)
chain: REVVMRVTTV

molecular target: T1, HTRA3, P83110; assay: holdup assay; parameters: key: below the threshold = too weak to quantify, mostly under pKd 3.1 to 4; details: plain residues with an end cap or a label only (N-terminal biotin on a linker: ado-ado)

Row | pKd | Binder
1 | below the threshold | B1
2 | 3.64 | B2

molecular target: FRMPD3, Q5JV73; assay: holdup assay; parameters: key: below the threshold = too weak to quantify, mostly under pKd 3.1 to 4; details: plain residues with an end cap or a label only (N-terminal biotin on a linker: ado-ado)
Sequence (Q5JV73 12-100): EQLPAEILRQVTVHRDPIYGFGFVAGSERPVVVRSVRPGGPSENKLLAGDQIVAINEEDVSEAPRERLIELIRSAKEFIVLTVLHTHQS

Row | pKd | Binder
3 | below the threshold | B1
4 | below the threshold | B2

molecular target: T2, APBA3_1, O96018; assay: holdup assay; parameters: key: below the threshold = too weak to quantify, mostly under pKd 3.1 to 4; details: plain residues with an end cap or a label only (N-terminal biotin on a linker: ado-ado)

Row | pKd | Binder
5 | below the threshold | B1
6 | below the threshold | B2

molecular target: ARHGEF12, Q9NZN5-2; assay: holdup assay; parameters: key: below the threshold = too weak to quantify, mostly under pKd 3.1 to 4; details: plain residues with an end cap or a label only (N-terminal biotin on a linker: ado-ado)
Sequence (Q9NZN5 other isoform, or with tags, fused parts or gaps): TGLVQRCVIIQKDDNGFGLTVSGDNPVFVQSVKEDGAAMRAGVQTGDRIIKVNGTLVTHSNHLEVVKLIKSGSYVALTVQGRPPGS

Row | pKd | Binder
7 | below the threshold | B1
8 | 4.8 | B2

molecular target: GRIP2_3, Q9C0E4; assay: holdup assay; parameters: key: below the threshold = too weak to quantify, mostly under pKd 3.1 to 4; details: plain residues with an end cap or a label only (N-terminal biotin on a linker: ado-ado)
Sequence (Q9C0E4 238-339): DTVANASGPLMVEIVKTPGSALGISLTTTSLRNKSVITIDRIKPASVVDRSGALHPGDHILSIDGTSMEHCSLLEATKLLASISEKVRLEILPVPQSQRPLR

Row | pKd | Binder
9 | below the threshold | B1
10 | below the threshold | B2

molecular target: MAGI2_4, Q86UL8; assay: holdup assay; parameters: key: below the threshold = too weak to quantify, mostly under pKd 3.1 to 4; details: plain residues with an end cap or a label only (N-terminal biotin on a linker: ado-ado)
Sequence (Q86UL8 772-865): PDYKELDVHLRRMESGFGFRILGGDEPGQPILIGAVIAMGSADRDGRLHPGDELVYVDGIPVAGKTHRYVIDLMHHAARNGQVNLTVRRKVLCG

Row | pKd | Binder
11 | below the threshold | B1
12 | 4.77 | B2

molecular target: DLG2_3, Q15700; assay: holdup assay; parameters: key: below the threshold = too weak to quantify, mostly under pKd 3.1 to 4; details: plain residues with an end cap or a label only (N-terminal biotin on a linker: ado-ado)

Row | pKd | Binder
13 | 3.58 | B1
14 | 4.92 | B2

molecular target: T3, LIN7C, Q9NUP9; assay: holdup assay; parameters: key: below the threshold = too weak to quantify, mostly under pKd 3.1 to 4; details: plain residues with an end cap or a label only (N-terminal biotin on a linker: ado-ado)

Row | pKd | Binder
15 | below the threshold | B1
16 | 4.47 | B2

molecular target: T4, PDZD7_3, Q9H5P4; assay: holdup assay; parameters: key: below the threshold = too weak to quantify, mostly under pKd 3.1 to 4; details: plain residues with an end cap or a label only (N-terminal biotin on a linker: ado-ado)

Row | pKd | Binder
17 | below the threshold | B1
18 | 5.24 | B2

molecular target: FRMPD2_2, Q68DX3; assay: holdup assay; parameters: key: below the threshold = too weak to quantify, mostly under pKd 3.1 to 4; details: plain residues with an end cap or a label only (N-terminal biotin on a linker: ado-ado)
Sequence (Q68DX3 944-1038): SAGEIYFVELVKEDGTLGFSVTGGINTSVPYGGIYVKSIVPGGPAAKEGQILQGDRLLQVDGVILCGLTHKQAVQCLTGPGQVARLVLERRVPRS

Row | pKd | Binder
19 | below the threshold | B1
20 | 4.11 | B2

molecular target: PTPN3, P26045; assay: holdup assay; parameters: key: below the threshold = too weak to quantify, mostly under pKd 3.1 to 4; details: plain residues with an end cap or a label only (N-terminal biotin on a linker: ado-ado)
Sequence (P26045 505-587): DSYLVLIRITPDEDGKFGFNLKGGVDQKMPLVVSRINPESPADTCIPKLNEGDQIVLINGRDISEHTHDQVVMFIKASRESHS

Row | pKd | Binder
21 | below the threshold | B1
22 | 4.91 | B2

molecular target: T5, TX1BP3, O14907; assay: holdup assay; parameters: key: below the threshold = too weak to quantify, mostly under pKd 3.1 to 4; details: plain residues with an end cap or a label only (N-terminal biotin on a linker: ado-ado)

Row | pKd | Binder
23 | below the threshold | B1
24 | 4.61 | B2

molecular target: FRMPD2_1, Q68DX3; assay: holdup assay; parameters: key: below the threshold = too weak to quantify, mostly under pKd 3.1 to 4; details: plain residues with an end cap or a label only (N-terminal biotin on a linker: ado-ado)
Sequence (Q68DX3 770-861): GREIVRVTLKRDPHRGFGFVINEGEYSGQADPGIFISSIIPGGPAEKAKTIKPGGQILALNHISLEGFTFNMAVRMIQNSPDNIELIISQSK

Row | pKd | Binder
25 | below the threshold | B1
26 | below the threshold | B2

molecular target: T6, PTPN13_1, Q12923; assay: holdup assay; parameters: key: below the threshold = too weak to quantify, mostly under pKd 3.1 to 4; details: plain residues with an end cap or a label only (N-terminal biotin on a linker: ado-ado)

Row | pKd | Binder
27 | below the threshold | B1
28 | below the threshold | B2

molecular target: GORASP1, Q9BQQ3; assay: holdup assay; parameters: key: below the threshold = too weak to quantify, mostly under pKd 3.1 to 4; details: plain residues with an end cap or a label only (N-terminal biotin on a linker: ado-ado)
Sequence (Q9BQQ3 1-208): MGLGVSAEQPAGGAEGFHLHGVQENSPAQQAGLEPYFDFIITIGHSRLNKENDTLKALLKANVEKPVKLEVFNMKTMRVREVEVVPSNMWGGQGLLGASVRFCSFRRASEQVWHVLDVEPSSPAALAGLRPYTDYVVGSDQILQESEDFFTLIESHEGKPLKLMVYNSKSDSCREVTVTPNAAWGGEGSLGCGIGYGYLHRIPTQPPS

Row | pKd | Binder
29 | 3.76 | B1
30 | 4.31 | B2

molecular target: T7, SNTA1, Q13424; assay: holdup assay; parameters: key: below the threshold = too weak to quantify, mostly under pKd 3.1 to 4; details: plain residues with an end cap or a label only (N-terminal biotin on a linker: ado-ado)

Row | pKd | Binder
31 | below the threshold | B1
32 | 5.27 | B2

molecular target: PDZRN4_1, Q6ZMN7; assay: holdup assay; parameters: key: below the threshold = too weak to quantify, mostly under pKd 3.1 to 4; details: plain residues with an end cap or a label only (N-terminal biotin on a linker: ado-ado)
Sequence (Q6ZMN7 213-318): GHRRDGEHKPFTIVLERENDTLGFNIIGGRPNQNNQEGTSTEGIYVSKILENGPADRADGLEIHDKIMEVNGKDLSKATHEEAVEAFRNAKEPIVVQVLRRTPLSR

Row | pKd | Binder
33 | below the threshold | B1
34 | 3.86 | B2

molecular target: MAST1, Q9Y2H9; assay: holdup assay; parameters: key: below the threshold = too weak to quantify, mostly under pKd 3.1 to 4; details: plain residues with an end cap or a label only (N-terminal biotin on a linker: ado-ado)
Sequence (Q9Y2H9 962-1065): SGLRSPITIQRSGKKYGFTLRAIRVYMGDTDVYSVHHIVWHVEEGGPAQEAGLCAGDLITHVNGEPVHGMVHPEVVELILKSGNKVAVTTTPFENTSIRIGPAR

Row | pKd | Binder
35 | 3.71 | B1
36 | 4.65 | B2

molecular target: T8, RHPN1, Q8TCX5; assay: holdup assay; parameters: key: below the threshold = too weak to quantify, mostly under pKd 3.1 to 4; details: plain residues with an end cap or a label only (N-terminal biotin on a linker: ado-ado)

Row | pKd | Binder
37 | below the threshold | B1
38 | 3.91 | B2

molecular target: T9, FRMPD1, Q5SYB0; assay: holdup assay; parameters: key: below the threshold = too weak to quantify, mostly under pKd 3.1 to 4; details: plain residues with an end cap or a label only (N-terminal biotin on a linker: ado-ado)

Row | pKd | Binder
39 | below the threshold | B1
40 | below the threshold | B2

molecular target: T10, SNTG2, Q9NY99; assay: holdup assay; parameters: key: below the threshold = too weak to quantify, mostly under pKd 3.1 to 4; details: plain residues with an end cap or a label only (N-terminal biotin on a linker: ado-ado)

Row | pKd | Binder
41 | below the threshold | B1
42 | 4.65 | B2

molecular target: T11, DVL3, Q92997; assay: holdup assay; parameters: key: below the threshold = too weak to quantify, mostly under pKd 3.1 to 4; details: plain residues with an end cap or a label only (N-terminal biotin on a linker: ado-ado)

Row | pKd | Binder
43 | below the threshold | B1
44 | below the threshold | B2

molecular target: Inadl_4, Q8NI35; assay: holdup assay; parameters: key: below the threshold = too weak to quantify, mostly under pKd 3.1 to 4; details: plain residues with an end cap or a label only (N-terminal biotin on a linker: ado-ado)
Sequence (Q8NI35 547-651): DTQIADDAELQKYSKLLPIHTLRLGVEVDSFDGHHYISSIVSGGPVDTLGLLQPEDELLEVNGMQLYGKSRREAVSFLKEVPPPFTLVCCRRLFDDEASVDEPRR

Row | pKd | Binder
45 | below the threshold | B1
46 | below the threshold | B2

molecular target: T12, TJP3_3, O95049; assay: holdup assay; parameters: key: below the threshold = too weak to quantify, mostly under pKd 3.1 to 4; details: plain residues with an end cap or a label only (N-terminal biotin on a linker: ado-ado)

Row | pKd | Binder
47 | below the threshold | B1
48 | below the threshold | B2

molecular target: Inadl_5, Q8NI35; assay: holdup assay; parameters: key: below the threshold = too weak to quantify, mostly under pKd 3.1 to 4; details: plain residues with an end cap or a label only (N-terminal biotin on a linker: ado-ado)
Sequence (Q8NI35 673-780): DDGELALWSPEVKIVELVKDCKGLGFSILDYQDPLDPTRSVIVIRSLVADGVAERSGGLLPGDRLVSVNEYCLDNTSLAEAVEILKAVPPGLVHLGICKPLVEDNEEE

Row | pKd | Binder
49 | below the threshold | B1
50 | below the threshold | B2
